This is an account of results in paper PMC3619014 (Molecular pharmaceutics, 2012).

The target of the experiment is human KDR (VEGFR-2) expressed on porcine aortic endothelial cells (PAE/KDR) (human, UniProt P35968 20-1356). Briefly: radioligand binding.
human KDR (VEGFR-2) expressed on porcine aortic endothelial cells (PAE/KDR), sequence (P35968 20-1356): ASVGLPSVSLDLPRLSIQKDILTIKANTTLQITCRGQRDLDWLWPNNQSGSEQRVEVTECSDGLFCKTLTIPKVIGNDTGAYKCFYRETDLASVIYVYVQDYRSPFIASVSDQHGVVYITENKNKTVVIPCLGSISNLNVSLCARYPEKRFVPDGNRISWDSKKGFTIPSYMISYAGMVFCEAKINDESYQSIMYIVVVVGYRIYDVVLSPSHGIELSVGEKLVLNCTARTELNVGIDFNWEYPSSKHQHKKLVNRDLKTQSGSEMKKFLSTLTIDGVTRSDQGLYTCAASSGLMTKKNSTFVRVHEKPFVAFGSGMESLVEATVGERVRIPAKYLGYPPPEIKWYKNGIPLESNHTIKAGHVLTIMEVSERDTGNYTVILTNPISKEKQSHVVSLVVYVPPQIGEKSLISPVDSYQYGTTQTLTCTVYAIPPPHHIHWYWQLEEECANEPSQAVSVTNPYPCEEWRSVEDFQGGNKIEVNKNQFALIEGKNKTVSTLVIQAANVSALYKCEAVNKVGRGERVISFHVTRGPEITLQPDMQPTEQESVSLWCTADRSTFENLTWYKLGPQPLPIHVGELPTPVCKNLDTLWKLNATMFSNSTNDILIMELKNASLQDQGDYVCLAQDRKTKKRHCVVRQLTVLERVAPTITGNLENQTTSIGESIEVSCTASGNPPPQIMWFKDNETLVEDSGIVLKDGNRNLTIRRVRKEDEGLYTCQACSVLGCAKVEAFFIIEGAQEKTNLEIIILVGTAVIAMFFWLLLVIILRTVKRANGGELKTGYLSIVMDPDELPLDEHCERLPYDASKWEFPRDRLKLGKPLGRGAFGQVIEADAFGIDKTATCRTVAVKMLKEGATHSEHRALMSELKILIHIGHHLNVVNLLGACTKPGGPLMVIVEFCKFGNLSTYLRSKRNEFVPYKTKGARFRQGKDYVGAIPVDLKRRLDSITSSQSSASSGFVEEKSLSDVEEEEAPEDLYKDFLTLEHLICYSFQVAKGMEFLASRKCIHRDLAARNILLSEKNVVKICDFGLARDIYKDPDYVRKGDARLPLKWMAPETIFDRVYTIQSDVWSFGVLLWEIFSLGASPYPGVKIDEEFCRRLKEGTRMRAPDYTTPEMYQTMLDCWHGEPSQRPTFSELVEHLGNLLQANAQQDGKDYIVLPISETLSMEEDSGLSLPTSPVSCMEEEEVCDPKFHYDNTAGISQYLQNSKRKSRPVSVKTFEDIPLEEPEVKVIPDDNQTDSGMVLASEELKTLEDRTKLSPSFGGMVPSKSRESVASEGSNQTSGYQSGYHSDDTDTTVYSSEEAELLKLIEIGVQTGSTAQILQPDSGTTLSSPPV

B1: NOTA-K3-VEGF121 (ligand)
chain: KKKAPMAEGGGQNHHEVVKFMDVYQRSYCHPIETLVDIFQEYPDEIEYIFKPSCVPLMRCGGCCNDEGLECVPTEESNITMQIMRIKPHQGQHIGEMSFLQHNKCECRPKKDRARQEKCDKPRR
modifications: NOTA (from p-SCN-Bn-NOTA) on lysine residues, estimated 1~2 NOTA residues in each NOTA-K3-VEGF121; positions not determined
The IC50 is the concentration at which inhibition is half-maximal. Molecule B1 showed a 50% inhibitory concentration (IC50) of 1.5 nM.
